{"source": "paper PMC5681633", "about": "“SnO2 hollow nanotubes: a novel and efficient support matrix for enzyme immobilization” (Scientific Reports, 2017)", "substrate": "CCCCCCCCCCCCCCCC(=O)Oc1ccc([N+](=O)[O-])cc1", "experiment": "hydrolysis assay, Michaelis-Menten nonlinear fit", "assay_type": "biochemical, Thermomyces lanuginosus", "conditions": "free enzyme, optimum temperature and pH (50 °C, pH 8.5, 20 mM Tris-HCl), substrate 0.05-5.0 mM, p-NPP as the standard assay substrate", "description": "hydrolysis assay, Michaelis-Menten nonlinear fit on Lipase from Thermomyces lanuginosus (Lipozyme TL 100 L)"}
{"protein": "Lipase from Thermomyces lanuginosus (Lipozyme TL 100 L) (Thermomyces lanuginosus) (protein, commercial secreted enzyme preparation (Novozymes), free (not immobilised)) EVSQDLFNQFNLFAQYSAAAYCGKNNDAPAGTNITCTGNACPEVEKADATFLYSFEDSGVGDVTGFLALDNTNKLIVLSFRGSRSIENWIGNLNFDLKEINDICSGCRGHDGFTSSWRSVADTLRQKVEDAVREHPDYRVVFTGHSLGGALATVAGADLRGNGYDIDVFSYGAPRVGNRAFAEFLTVQTGGTLYRITHTNDIVPRLPPREFGYSHSSPEYWIKSGTLVPVTRNDIVKIEGIDATGGNNQPNIPDIPAHLWYFGLIGTCL", "values": [{"measurement": "Km", "value": "710 ± 50", "unit": "µM"}]}
